B1: SPRY domain-containing SOCS box protein 2 (Mus musculus), O88838 (parent)
chain: MGQTALARGSSSTPTSQALYSDFSPPEGLEELLSAPPPDLVAQRHHGWNPKDCSENIDVKEGGLCFERRPVAQSTDGVRGKRGYSRGLHAWEISWPLEQRGTHAVVGVATALAPLQADHYAALLGSNSESWGWDIGRGKLYHQSKGLEAPQYPAGPQGEQLVVPERLLVVLDMEEGTLGYSIGGTYLGPAFRGLKGRTLYPSVSAVWGQCQVRIRYMGERRVEEPQSLLHLSRLCVRHALGDTRLGQISTLPLPPAMKRYLLYK
partner: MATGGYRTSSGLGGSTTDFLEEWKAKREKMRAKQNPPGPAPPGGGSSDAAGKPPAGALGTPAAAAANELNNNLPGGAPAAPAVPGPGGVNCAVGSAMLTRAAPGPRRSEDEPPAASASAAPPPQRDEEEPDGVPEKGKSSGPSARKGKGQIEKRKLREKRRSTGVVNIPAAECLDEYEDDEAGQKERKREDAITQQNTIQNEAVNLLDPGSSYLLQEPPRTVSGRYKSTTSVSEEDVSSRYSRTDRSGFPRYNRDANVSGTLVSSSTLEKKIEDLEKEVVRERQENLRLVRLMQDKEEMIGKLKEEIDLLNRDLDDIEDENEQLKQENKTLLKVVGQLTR

The variants in the experiment derive from B1. As to conditions: with pawr_human PAWR.
As for MGQTALARGSSSTPTSQALYSDFSPPEGLEELLSAPPPDLVAQRHHGWNPKDCSENIDVKEGGLCFERRPVAQSTDGVRGKRGYSRGLHAWEISWPLEQRGTHAVVGVATALAPLQADHYAALLGSNSESWGWDIGRGKLYHQSKGLEAPQYPAGPQGEQLVVPERLLVVLDMEEGTLGYSIGGTYLGPAFRGLKGRTLYPSVSAAWGQCQVRIRYMGERRVEEPQSLLHLSRLCVRHALGDTRLGQISTLPLPPAMKRYLLYK [V206A], the “effect of a mutation on the interaction” value is “disrupting interaction”. MGQTALARGSSSTPTSQALYSDFSPPEGLEELLSAPPPDLVAQRHHGWNPKDCSENIDVKEGGLCFERRPVAQSTDGVRGKRGYSRGLHAWEISWPLEQRGTHAVVGVATALAPLQADHYAAAAASNSESWGWDIGRGKLYHQSKGLEAPQYPAGPQGEQLVVPERLLVVLDMEEGTLGYSIGGTYLGPAFRGLKGRTLYPSVSAVWGQCQVRIRYMGERRVEEPQSLLHLSRLCVRHALGDTRLGQISTLPLPPAMKRYLLYK [L123A;L124A;G125A]: the “effect of a mutation on the interaction” value was “disrupting interaction strength”. Regarding MGQTALARGSSSTPTSQALYSDFSPPEGLEELLSAPPPDLVAQRHHGWNPKDCSENIDVKEGGLCFERRPVAQSTDGVRGKRGYSRGLHAWEISWPLEQRGTHAVVGVATALAPLQADHYAALLGSNSESWGWDIGRGKLYHQSKGLEAPQYPAGPQGEQLVVPERLLVVLDMEEGTLGYSIGGTYLAAAFRGLKGRTLYPSVSAVWGQCQVRIRYMGERRVEEPQSLLHLSRLCVRHALGDTRLGQISTLPLPPAMKRYLLYK [G188A;P189A], the “effect of a mutation on the interaction” value was “disrupting interaction strength”. Consider MGQTALARGSSSTPTSQALYSDFSPPEGLEELLSAPPPDLVAQRHHGWNPKDCSENIDVKEGGLCFERRPVAQSTDGVRGKRGYSRGLHAWEISWPLEQRGTHAVVGVATALAPLQADHYAALLGSNSESWGWDIGRGKLYHQSKGLEAPAAPAGPQGEQLVVPERLLVVLDMEEGTLGYSIGGTYLGPAFRGLKGRTLYPSVSAVWGQCQVRIRYMGERRVEEPQSLLHLSRLCVRHALGDTRLGQISTLPLPPAMKRYLLYK [Q151A;Y152A], for which the “effect of a mutation on the interaction” value is on record as “disrupting interaction strength”. As to MGQTALARGSSSTPTSQALYSDFSPPEGLEELLSAPPPDLVAQRHHGWNPKDCSENIDVKEGGLCFERRPVAQSTDGVRGKRGYSRGLHAWEISWPLEQRGTHAVVGVATALAPLQADHAAALLGSNSESWGWDIGRGKLYHQSKGLEAPQYPAGPQGEQLVVPERLLVVLDMEEGTLGYSIGGTYLGPAFRGLKGRTLYPSVSAVWGQCQVRIRYMGERRVEEPQSLLHLSRLCVRHALGDTRLGQISTLPLPPAMKRYLLYK [Y120A], the “effect of a mutation on the interaction” value is recorded as “disrupting interaction”. With MGQTALARGSSSTPTSQALYSDFSPPEGLEELLSAPPPDLVAQRHHGWNPKDCSENIDVKEGGLCFERRPVAQSTDGVRGKRGYSRGLHAWEISWPLEQRGTHAVVGVATALAPLQADHYAALLGSNSESWGWDIGRGKLAAASKGLEAPQYPAGPQGEQLVVPERLLVVLDMEEGTLGYSIGGTYLGPAFRGLKGRTLYPSVSAVWGQCQVRIRYMGERRVEEPQSLLHLSRLCVRHALGDTRLGQISTLPLPPAMKRYLLYK [Y141A;H142A;Q143A], the “effect of a mutation on the interaction” value is “disrupting interaction strength”.

The values are drawn from IntAct's records for PubMed 16369487.
